Broadly, the Kd is the concentration at which binding is half-saturated. Higher therefore signals lower affinity.

This note sets out measurements from article PMC6208348 (2018).

Values joined by “and” are separate entries in the source; they are usually repeats but may differ in a detail not shown here. Equal values may be shown once. Read-outs that look alike come from different tables or passages of the source. Non-standard residues stand in square brackets, D forms with d. No end group written: not given here. pY = N[C@@H](Cc1ccc(OP(=O)(O)O)cc1)C(=O)O; pT = C[C@@H](OP(=O)(O)O)[C@H](N)C(=O)O

B1: L. longbeachae LeSH (natural protein)
chain: MEAMQKNELNSKIPIIFGLINSYQIHNLLEQHNAKTKESKAVFLIRDSSTYPGLLTISYYCQEQDIVKHIRFGLTDKGWKTAPKPPHEPLKSDSPEIKEKYTLDKIKFERKMKQFINTAKKLFEQHIRAESFKTLIMELKIHEFNLEGLIKPTRSQASQEKHFTDYV

Targets include MidT-pTyr324; VCP-pTyr805-tail7; EGFR-pTyr1086; Shc1-pTyr317; L. dumoffii LeSH2 (Legionella dumoffii); L. pneumophila LeSH2; wild-type Src SH2 domain (UniProt P12931 151-248).
What all share (experiment): FP
Experiment [1] concerns the target Src SH2 TrM (superbinder).
Experiment [2] concerns the target L. anisa LeSH2b (Lani_WP_019234638) (Legionella anisa).
In experiment [3] the target is Shc1-pTyr239.
The target in experiment [4] is Shc1-pTyr239. This is another data set of the same source.
For experiment [5], the target named is DnaJ-A1-pTyr381 ∆C peptide (human, UniProt P31689).
For experiment [6], the target named is L. anisa LeSH1b (Lani_2495) (Legionella anisa).
The target in experiment [7] is T1, L. dumoffii LeSH1a (Legionella dumoffii).
For experiment [8], the target named is L. pneumophila DoSH C-SH2.
The target of experiment [9] is L. waltersii LeSH5 tandem SH2.
Experiment [10] has as its target L. pneumophila RavO SH2 domain (Gly212-Asp406) (Legionella pneumophila, UniProt Q5ZWF6 212-406).
The experiment “L. longbeachae LeSH” has as its target B1.
The target of experiment [11] is Src SH2 TrM (superbinder). The source holds these as a separate data set.
In experiment [12] the target is L. longbeachae LUSH SH2 domain (Ser3-Ser171) (Legionella longbeachae).
For experiment [13], the target named is T1, L. dumoffii LeSH1a. This is another data set of the same source.

GG[pY]GG [mini peptide GGpYGG]: the results for the Kd in experiment [1] and in [2] were 1.5 µM and 35.2 µM, respectively.

With B1, the equilibrium dissociation constant (Kd) worked out at 3.7 µM with MidT-pTyr324; 7.1 µM with Shc1-pTyr239 [3]; 2.2 µM with VCP-pTyr805-tail7; 20.4 µM with EGFR-pTyr1086; 6.71 µM with Shc1-pTyr317; 7.15 µM with Shc1-pTyr239 [4]. This molecule showed a Kd in experiment [5] of 2.75 µM.

B2: DnaJ-A1 pTyr381 peptide (fluorescein-labelled) (peptide)
chain: HYNGEAYEDDEHH
modifications: not fully specified (N-terminus); also: pTyr381, position not given here, fluorescein-labelled
As to B2, the dissociation constant Kd was 18.7 µM in experiment [2]; greater than 50 µM in [6]; greater than 50 µM in the experiment with L. dumoffii LeSH1a [7]; greater than 50 µM in experiment [8]; 29.2 µM in experiment [9]; 19.2 µM in experiment [10]. In the experiment with L. longbeachae LeSH, the Kd was 0.5 µM and 0.53 µM.

Take YG [pY-G dipeptide (VCP peptide)]: the Kd in the experiment with L. dumoffii LeSH2 is 7.43 µM; with L. dumoffii LeSH1a [7] it was greater than 50 µM; in experiment [11], 1.79 µM; in experiment [12], 0.81 µM; with L. longbeachae LeSH it was 0.99 µM and 1 µM.

GG[pT]GG [pThr-containing version of GGpYGG]: the Kd (in [1]; with L. dumoffii LeSH2; with L. dumoffii LeSH1a [7]; in experiment [12]; in experiment [10]; with L. longbeachae LeSH) was greater than 50 µM in each case.

B3: IL2Rβ pTyr387 peptide (fluorescein-labelled) (peptide)
chain: YFTYDPYSEEDPD
modifications: not fully specified (N-terminus); also: pTyr387, position not given here, fluorescein-labelled
With B3, the Kd with L. pneumophila LeSH2 was 1.71 µM; in experiment [2], 4 µM; in experiment [6], greater than 50 µM; in the experiment with L. dumoffii LeSH2 it was 2.94 µM; in the experiment with L. dumoffii LeSH1a [7], greater than 50 µM; in experiment [8], 23 µM. Moreover, the Kd was 18 µM in experiment [9]; 7.57 µM and 7.6 µM in experiment [10]; 4.13 µM with wild-type Src SH2 domain; 0.91 µM and 0.9 µM in the experiment with L. longbeachae LeSH.

B4: Shc1 pTyr317 peptide (acetyl-DPSpYVNVQNL-amide) (peptide)
peptide: Ac-DPS[pY]VNVQNL-NH2
SMILES: CC(=O)N[C@@H](CC(=O)O)C(=O)N1CCC[C@H]1C(=O)N[C@@H](CO)C(=O)N[C@@H](Cc1ccc(OP(=O)(O)O)cc1)C(=O)N[C@H](C(=O)N[C@@H](CC(N)=O)C(=O)N[C@H](C(=O)N[C@@H](CCC(N)=O)C(=O)N[C@@H](CC(N)=O)C(=O)N[C@@H](CC(C)C)C(N)=O)C(C)C)C(C)C
B4: the values for the Kd (with L. dumoffii LeSH1a [13]; in experiment [10]; with L. longbeachae LeSH) were greater than 50 µM, 1.1 µM and 6.7 µM, respectively.
